Residue numbers refer to the chain shown, from its start. Several values for one entry are separate records, joined by “and”; a condition that tells them apart may be missing. Equal values may be shown once. Read-outs that look alike come from different tables or passages of the source.
B1: anti-TMEM106B antibody TM-50 (antibody, V domains shown)
VH: QVQLKESGPVLVAPSQSLSITCTVSGFSLTNYGVHWVRQPPGKGLEWLGVIWAGGNTNYNSALMSRLSISKDNSKSQVFLKMNSLQTDDTAMYYCAKEAKLLRSYAMDYWGQGTLVTVSA
VL: DVQMTQTTSSLSASLGDRVTISCRASQDINNYLYWYQQKPDGTVKLLIYYTSMLHSGVPSRFSGSGSGTDYSLTISNLEQEDIATYFCQQGSTLMYTFGGGTKLEIK
notes: mouse IgG from hybridoma
B2: anti-TMEM106B antibody TM-2 (antibody, V domains shown)
VH: HIQLVQSGPELKKPGETVKISCKASGYTFTEYPMHWVKQAPGKGFRWMGMIYTNTGEPTYAAEFKGRFAFSLETSASTGYLQINNLKNEDSATYFCVTAGYWGQGTLVTVSA
VL: QIVLTQSPAILSASPGEKVTMTCRASSSVSYIHWFLQKPGSSPKPWIYATSNLASGVPFRFIGSGSGTSYSLTISGVEAEDSATYYCQQWSSNPSTFGAGTKLELK
B3: anti-TMEM106B antibody TM-52 (antibody, V domains shown)
VH: QVQLQQPGAELVKPGASVKLSCKASGYTFTNYWMHWVKQRPGQGLDWIGNIDPSDSETHYNQKFKDKATLTVDKVSSTAYMQLSSLTSEDSAVYYCARRGYYGRSPFAYWGQGTLVTVSA
VL: ENVLTQSPAIMSASPGEKVTMTCSASSSVSYMHWYQQKSNTSPKLWIYDTSKLASGVPGRFSGSGSGNSYSLTISSAEAEDVATYYCFQGSGYPLTFGAGTKLELK
notes: mouse IgG from hybridoma
B4: anti-TMEM106B antibody TM-18 (antibody, V domains shown)
VH: EVRLQQSGPELVKPGASVKISCKTSGYTFTDYYMNWVKQSHGKSLEWIVNINPNNGDAFYNQKFKGKATLTVDKSSNTAYLDLRSLTSEDSAVYYCAREGQLRLRRVYAMDYWGQGTSVTVSS
VL: DIVLAQSPASLAVSLGQRATISCRASKSVSISVYTYVHWYQQKPGQPPKLLIYLASNLESGVPARFSGSGSGTDFTLNIHPVEEEDAATYYCQHSRELPYTFGGGTKLEIK
B5: anti-TMEM106B antibody TM-1 (antibody, V domains shown)
VH: QVQLQQSGAELVRPGTSVKVSCKASGYAFTNYLIEWVKQRPGQGLEWIGVINPGSGGTKYNEKLKGKATLTADKSSSTAYMQLSSLTSVDSAVYFCARRGYTIYDFYAMDYWGQGTSVTVSS
VL: DVLMTQTPLSLPVSLGDHASISCRSSQSIVYNNGNTYLEWYLQKPGQSPKLLIYKVSNRFSGVPDRFSGSGSGTDFTLKISRVEAEDLGVYYCFQVSHVPFTFGSGTKLEIK
B6: anti-TMEM106B antibody TM-19 (antibody, V domains shown)
VH: DVQLQQSGAELVRPGASVKLSCTASGFNIKDYYMYWVKQRPEQGLEWIGRIDPEDGDTENAPKFRGMATMTADTSSNTAYLQLNSLTSEDTAVYYCTTRIGNLYHVMDYWGHGTSVTVSS
VL: B5 VL with H18Q, Y31H, N32S, S48A, Y54D, S57F, V96G
B7: anti-TMEM106B antibody TM-22 (antibody, V domains shown)
VH: QVQLQQSGPELVKPGASVKISCKASGYRFTSYYIHWVKQRPGQGLEWIGWIYPGNGITNYNEKFKGKATLTADTSSSTAYMQLSSLTSEDSAVYYCASPYYGIRNCYFDVWGTGTTVTVSS
VL: B5 VL with S26G, Y31H, N32S, V90I, V96G, F101W, S105G

Assays:
human TMEM106B [1] = molecular target: T1, human TMEM106B (human, UniProt Q9NUM4 2-274); test: FACS HEK+huTMEM, 0.01 ug/ml
T1 construct: Full-length, on transiently transfected HEK293 cells, or natively expressed on HeLa, U251 and A549 cells; also called huTMEM106B; huTMEM

human TMEM106B [2] = molecular target: T1, human TMEM106B; test: FACS HeLa;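 further: flow cytometry of cells incubated with hybridoma supernatant or purified antibody at 10 µg/ml for 1 h on ice, propidium iodide–positive dead cells gated out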
human TMEM106B [3] = molecular target: T1, human TMEM106B; test: FACS, HEK293 transfectants;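 on fold over negative controls: hybridoma supernatants incubated 30 min on ice with human TMEM106B-expressing HEK293 cells, binding read as anti-mouse-APC median fluorescence on live cells, relative to secondary-antibody-only wells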;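 on fold-change over parental HEK293: flow cytometry binding of hybridoma supernatants to HEK293 cells transiently expressing human, cyno or mouse TMEM106B, read as anti-mouse-APC median fluorescence, live cells only, 30 min on ice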
GST (Pierce) [4] = molecular target: T2, GST (Pierce) (UniProt P08515 1-218 = GST, limits assumed); test: array SPR, Ab immobilised
T2 construct: control for the GST part of the fusion protein; also called GST protein; Glutathione-S-transferase

human TMEM106B [5] = molecular target: T1, human TMEM106B; test: FACS A549, 1 ug/ml
Protocol: (§1) Purified anti-TMEM106B antibodies were evaluated for their binding affinity to various TMEM106B-expressing cell lines including HEK293 transiently transfected with human/cyno/mouse TMEM106B, as well as HeLa cells and A549 cells. Antibodies tested for this experiment were mouse IgGs purified from hybridoma supernatant. Affinity binding to cells was determined as follows. Briefly, 1x10^5 cells were aliquoted per well in 96-well round bottom plates and incubated with 50 µL of purified anti-TMEM106B antibody at various concentrations (10x dilutions starting at 10 µg/ml) in FACS buffer (PBS + 2% FBS + 1 mM EDTA). […] Sorting was performed on a iQue (Intellicyt), with sort gates drawn to exclude dead (propidium iodide +) cells. Binding data was analyzed using median fluorescent intensity (MFI) and graphed in Prism. Values presented are MFI.

[6] = molecular target: T3, cynomolgus (cyno) TMEM106B (cynomolgus, UniProt Q9NUM4 2-274 (human entry)); test: FACS, HEK293 transfectants;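 further: flow cytometry binding of hybridoma supernatants to HEK293 cells transiently expressing human, cyno or mouse TMEM106B, read as anti-mouse-APC median fluorescence, live cells only, 30 min on ice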
T3 construct: on transiently transfected HEK293 cells

mouse TMEM106B [7] = molecular target: T4, mouse TMEM106B (mouse, UniProt Q80X71 2-275); test: FACS, HEK293 transfectants;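 further: flow cytometry binding of hybridoma supernatants to HEK293 cells transiently expressing human, cyno or mouse TMEM106B, read as anti-mouse-APC median fluorescence, live cells only, 30 min on ice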
T4 construct: on transiently transfected HEK293 cells, or natively expressed on mouse Neuro2a cells; also called moTMEM106B; murine TMEM106B

human TMEM106B [8] = molecular target: T1, human TMEM106B; test: FACS, HEK293 transfectants; remark: listed apart in the source;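 on fold over negative controls: hybridoma supernatants incubated 30 min on ice with human TMEM106B-expressing HEK293 cells, binding read as anti-mouse-APC median fluorescence on live cells, relative to secondary-antibody-only wells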;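 on fold-change over parental HEK293: flow cytometry binding of hybridoma supernatants to HEK293 cells transiently expressing human, cyno or mouse TMEM106B, read as anti-mouse-APC median fluorescence, live cells only, 30 min on ice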
human TMEM106B [9] = molecular target: T1, human TMEM106B; test: FACS A549, 10 ug/ml
human TMEM106B [10] = molecular target: T1, human TMEM106B; test: FACS HEK+huTMEM, 10 ug/ml;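 further: purified mouse IgG antibodies at 10 µg/ml bound to HEK293 cells transiently expressing human TMEM106B, measured by flow cytometry as median fluorescence intensity of propidium iodide negative live cells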
mouse TMEM106B [11] = molecular target: T4, mouse TMEM106B; test: FACS Neuro2a;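 further: flow cytometry of cells stained with antibody or hybridoma supernatant (purified antibody at 10 µg/ml) for 1 h on ice, propidium iodide–positive dead cells gated out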
Protocol: All cells were cultured in either T75 or T150 flasks. […] The enzyme was quenched by addition of fresh media, and the cells were then distributed into 96-well plates for FACS analysis.
FACS analysis was performed as follows. Each cell type was aliquoted in 96-well round bottom plates (2x10^5 cells per well), washed once with FACS buffer (PBS + 2% FBS + 1 mM EDTA), and incubated with 50 µL of hybridoma supernatant or purified antibody (10 µg/ml in FACS buffer) on ice for 1 hour. […] Following this secondary incubation, the cells were again washed 2x with ice-cold FACS buffer and resuspended in a final volume of 50 µL of FACS buffer + 0.25 µl/well propidium iodide (Fisher Scientific # BDB556463). Analysis was performed on a FACSCanto system (BD Biosciences) or iQue (Intellicyt), with sort gates drawn to exclude dead (i.e., propidium iodide positive) cells.
Data is presented as mean fluorescence intensity (MFI).

human TMEM106B [12] = molecular target: T1, human TMEM106B; test: FACS HEK+huTMEM, 1.0 ug/ml
Protocol: as §1

[13] = molecular target: T5, GST-fusion human TMEM106B truncated (human); test: epitope binning, array SPR (Community 3, Bin 5)
T5 construct: also called GST-TMEM106B-truncated protein; GST-TMEM106B (truncated)
Protocol: Epitope binning of the anti-TMEM106B antibodies was performed by Carterra (Salt Lake City, Nevada, USA) using a pre-mix epitope binning approach.

human TMEM106B [14] = molecular target: T1, human TMEM106B; test: FACS A549
human TMEM106B [15] = molecular target: T1, human TMEM106B; test: FACS HEK+huTMEM, 0.1 ug/ml;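 further: flow cytometry binding of purified mouse IgG antibodies to HEK293 cells transiently expressing TMEM106B, read as median fluorescence intensity with propidium iodide positive dead cells gated out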
human TMEM106B [16] = molecular target: T1, human TMEM106B; test: FACS U251;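 further: flow cytometry of cells exposed to antibody (purified at 10 µg/mL, or hybridoma supernatant) for 1 h on ice, with propidium iodide-positive dead cells gated out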
[17] = molecular target: T5, GST-fusion human TMEM106B truncated; test: array SPR, Ab immobilised;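 on koff: antibodies amine-coupled on an MX-96 chip, antigen flowed at 500 nM top concentration in 5-fold serial dilutions, GST alone run as nonspecific-binding control, duplicate measurements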;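 on kon: antibodies amine-coupled on an MX-96 chip, antigen flowed at 500 nM top concentration in 5-fold serial dilutions, GST alone run as nonspecific-binding control, duplicate measurements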
[18] = molecular target: T5, GST-fusion human TMEM106B truncated; test: array SPR, Ab immobilised; remark: listed apart in the source;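 on koff: antibodies amine-coupled on an MX-96 chip, antigen flowed at 500 nM top concentration in 5-fold serial dilutions, GST alone run as nonspecific-binding control, duplicate measurements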;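 on kon: antibodies amine-coupled on an MX-96 chip, antigen flowed at 500 nM top concentration in 5-fold serial dilutions, GST alone run as nonspecific-binding control, duplicate measurements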
GST (Pierce) [19] = molecular target: T2, GST (Pierce); test: ELISA, coated GST;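 further: ELISA on plates coated with GST alone at 1-10 µg/ml, antibodies applied at 100-1000x dilution, bound antibody detected by peroxidase substrate colour after acid stop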
Protocol: (§2) Briefly, 96-well polystyrene plates were coated with 1-10 µg/ml of recombinant GST-TMEM106B-truncated protein or GST (Pierce) in PBS either at 370 Cfor 1-4 hours or overnight at 4 °C. Coated plates were then blocked with 5% BSA for 1-hour, washed 3×150 µL in TBST (Tris-buffered saline + 0.1% Tween20), and then the antibodies were added at various dilutions (100-1000x) in PBS. After 1-hour incubation (room temperature, with shaking), the plates were washed 3x150 µL in TBST. […] After a final set of washes (3×150µL in TBST), 100 µL of peroxidase substrate was added for 1 minute; the reaction was then quenched with 2N sulfuric acid (100 µL).

human TMEM106B [20] = molecular target: T1, human TMEM106B; test: FACS titration on cells, apparent
Protocol: as §1

[21] = molecular target: T5, GST-fusion human TMEM106B truncated; test: ELISA, supernatant
Protocol: as §2

| Binder | MFI (human TMEM106B [1]) | MFI (human TMEM106B [2]) | fold over negative controls (human TMEM106B [3]) [fold] | MFI (human TMEM106B [5]) | fold-change over parental HEK293 [6] [fold] | fold-change over parental HEK293 (mouse TMEM106B [7]) [fold] | fold-change over parental HEK293 (human TMEM106B [8]) [fold] | MFI (human TMEM106B [9]) | MFI (human TMEM106B [10]) | MFI (mouse TMEM106B [11]) | MFI (human TMEM106B [12]) | MFI (human TMEM106B [14]) | MFI (human TMEM106B [15]) | MFI (human TMEM106B [16]) | Kd [18] | koff [18] | kon [18] | binding result (GST (Pierce) [19]) | Kd (human TMEM106B [20]) [nM] | also measured |
| --- | --- | --- | --- | --- | --- | --- | --- | --- | --- | --- | --- | --- | --- | --- | --- | --- | --- | --- | --- | --- |
| B1 | 294 | 159 | > 2 | 381 | 17.8 | 17.5 | 16 | 445 | 396 | 257 | 314 | 580 | 305 | 260 |  |  |  |  |  | binding result (GST (Pierce) [4]): no binding; binding result [13]: no binding (tested: 55 nM antigen) |
| B2 | 1440 | 2530 | > 2 | 1090 | 32.3 | 17.5 | 9.84 | 3360 | 55500 | 2900 | 29300 | 1890 | 4730 | 1410 | 0.9 nM and 1.2 nM | 1.1e-05 s⁻¹ and 1e-05 s⁻¹ | 12000 M⁻¹ s⁻¹ and 8300 M⁻¹ s⁻¹ | no binding |  | Kd [17]: ~1 nM |
| B3 | 451 | 227 | > 2 | 401 | 22.6 | 0.67 | 17.3 | 443 | 7020 | 210 | 8200 | 987 | 1940 | 341 |  |  |  |  |  | binding result (GST (Pierce) [4]): no binding; binding result [13]: no binding (tested: 55 nM antigen) |
| B4 | 1740 | 1920 | > 2 | 2620 | 38.8 | 29 | 18.8 | 5190 | 71700 | 1930 | 67300 | 1490 | 10600 | 874 | 7.3 nM and 11 nM | 7.2e-05 s⁻¹ and 9.4e-05 s⁻¹ | 9900 M⁻¹ s⁻¹ and 8500 M⁻¹ s⁻¹ | no binding | ~1 |  |
| B5 | 655 | 253 | > 2 | 364 | 11.7 | 4.61 | 4.72 | 409 | 2380 | 253 | 2010 | 1460 | 1330 | 244 | 14 nM and 13 nM | 0.00057 s⁻¹ and 0.00069 s⁻¹ | 40000 M⁻¹ s⁻¹ and 52000 M⁻¹ s⁻¹ | no binding | ~1 |  |
| B6 | 3340 | 2430 | > 2 | 3640 | 34.9 | 36 | 13.8 | 4960 | 79000 | 2140 | 66800 | 1820 | 29800 | 878 |  |  |  | no binding | ~1 | binding result [21]: binds |
| B7 | 500 | 408 |  | 399 |  |  |  | 478 | 3580 | 400 | 2100 | 1570 | 833 | 313 |  |  |  | no binding |  | binding result [21]: binds |

From patent US20230303681A1 (published 2023)
